According to US20260216242A1 (ALMAC DISCOVERY, published 2026):
Substitutions are numbered along the chain they refer to.

T1: human ALPI on CHO cells (human, UniProt P09923 20-503)
T1 construct: whole, on cells; also called CHO-ALPI
T1 sequence (looked up): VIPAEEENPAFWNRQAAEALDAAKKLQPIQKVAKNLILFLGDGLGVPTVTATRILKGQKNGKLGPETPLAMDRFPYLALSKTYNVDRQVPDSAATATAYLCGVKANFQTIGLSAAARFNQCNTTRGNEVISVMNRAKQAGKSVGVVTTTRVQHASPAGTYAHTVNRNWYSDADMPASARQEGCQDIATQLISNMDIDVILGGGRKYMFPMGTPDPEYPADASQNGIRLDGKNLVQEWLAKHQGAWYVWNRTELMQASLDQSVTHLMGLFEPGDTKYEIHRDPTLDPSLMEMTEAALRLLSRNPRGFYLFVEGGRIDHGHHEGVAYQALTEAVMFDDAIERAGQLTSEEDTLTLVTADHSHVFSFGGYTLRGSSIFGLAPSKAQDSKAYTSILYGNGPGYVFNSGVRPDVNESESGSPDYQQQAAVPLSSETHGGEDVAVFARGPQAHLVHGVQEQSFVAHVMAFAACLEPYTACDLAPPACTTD

T2: ALPI His homodimer (human, UniProt P09923 20-503)
T2 construct: Whole entry with His tag; used in ELISA and BLI; also called hALPI
T2 sequence: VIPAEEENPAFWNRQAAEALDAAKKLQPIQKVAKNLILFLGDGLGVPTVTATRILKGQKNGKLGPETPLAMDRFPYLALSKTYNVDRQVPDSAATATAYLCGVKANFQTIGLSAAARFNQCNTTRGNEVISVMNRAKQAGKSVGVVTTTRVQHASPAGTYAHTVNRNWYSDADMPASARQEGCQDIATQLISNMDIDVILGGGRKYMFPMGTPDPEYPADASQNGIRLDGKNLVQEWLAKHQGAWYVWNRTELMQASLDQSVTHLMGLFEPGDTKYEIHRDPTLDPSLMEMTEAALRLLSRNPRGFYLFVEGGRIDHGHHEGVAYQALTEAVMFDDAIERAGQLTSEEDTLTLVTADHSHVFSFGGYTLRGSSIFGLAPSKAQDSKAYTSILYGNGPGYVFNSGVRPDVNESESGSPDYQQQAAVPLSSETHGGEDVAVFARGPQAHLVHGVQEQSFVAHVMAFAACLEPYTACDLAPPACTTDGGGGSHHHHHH

T3: human ALPL on CHO cells (human, UniProt P05186 18-501)
T3 construct: whole, on cells; also called CHO-ALPL
T3 sequence (looked up): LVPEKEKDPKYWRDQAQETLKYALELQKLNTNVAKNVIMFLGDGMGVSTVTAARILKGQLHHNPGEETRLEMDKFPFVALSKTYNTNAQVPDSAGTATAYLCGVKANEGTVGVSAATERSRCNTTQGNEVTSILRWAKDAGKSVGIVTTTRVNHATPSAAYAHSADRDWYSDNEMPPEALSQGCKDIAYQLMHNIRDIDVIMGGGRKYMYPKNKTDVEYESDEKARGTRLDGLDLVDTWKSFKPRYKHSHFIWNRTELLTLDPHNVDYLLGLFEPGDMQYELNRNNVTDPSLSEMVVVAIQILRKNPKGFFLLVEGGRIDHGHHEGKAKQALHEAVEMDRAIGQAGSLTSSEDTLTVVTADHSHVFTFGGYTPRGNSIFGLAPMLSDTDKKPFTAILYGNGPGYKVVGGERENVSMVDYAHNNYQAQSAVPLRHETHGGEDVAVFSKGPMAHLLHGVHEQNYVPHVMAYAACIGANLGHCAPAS

B1: F08 His (VHH, not shown: small tags and cut ends)
VHH: QVQLVESGGGSVQAGGSLRLSCAASGPSLSNYAMGWFRQAPGKEREFVAGISWGGGRTSYTDSVKGRFTISRDNAKNTVYLQMNNLKPEDTGVYYCAGRYGRGRNVEYEYDYWGQGTQVTVSS
notes: also called #269
B2: D04 His (VHH, not shown: small tags and cut ends)
VHH: QVQLVESGGGLVQPGGSLRLSCAASESTFSINVMGWYRQAPGKQRELVATITSGDITNYADSVKGRFTISRDNAENTVYLRTNSLKPEDTAVYYCNARGEYHSGNEYDYWGQGTQVTVSS
B3: A06 His (VHH, not shown: small tags and cut ends)
VHH: QVHLVESGGGLVQAGGSLRLSCAASGRTFLSMGWFRQAPGKEREFVAAISWTGGSTGYADSVKGRFTISRESDKETMYLQMNSLKPEDTAVYYCAARGDVYYGGDDATRYKYWGQGTQVTVSS
notes: also called #250
B4: E10 His (VHH, not shown: small tags and cut ends)
VHH: QVQLVESGGGLVQAGGSLRLSCAVSGRALSDYNIGWFRQAPGKEREFVARKTWDGSSTRYDDSVKGRFTVSIEDAKNTAYLQMSSLKTEDTAVYYCAAGRYSRARGWEYDYWGQGTQVTVSS
notes: also called #265
B5: F05 His (VHH, not shown: small tags and cut ends)
VHH: B4 VHH with V24A, L29F, S30G, K51R, E73D, D74N, S84N, A104V
B6: A05 His (VHH, not shown: small tags and cut ends)
VHH: QVQLVESGGGLVQAGASLTLSCAASGFTFNTRSIVWFRQAPGKEREAVSCISKVAGSTYYGDSVQGRFSSSTDNAKNTVSLQMNSLKPEDTAVYTCAASFAPNCYGWSVAANMEYWGEGTMVTVSS
notes: also called #249
B7: E06 His (VHH, not shown: small tags and cut ends)
VHH: QVHLVESGGGLVQAGGSLRLSCAASRRSFSEYAMGWFRQAPGKEREFVAAIGWSGVIEYADSVKGRFTISRDNAKDTVYLQMNSLKPEDTAVYYCAAGLGIRVVSQTPAYWGQGTQVTVSS
B8: C07 His (VHH, not shown: small tags and cut ends)
VHH: QVQLVESGGGLVQAGESLRLACAASGTIFSGNAVGWYRQAPEKQREWVSSITDYGDTDYAEAVKGRFTISRDNAKNTVYLQMNSLKPEDTAVYYCYVYQRGESEEYWGQGTQVTVSS
notes: also called #258
B9: D10 His (VHH, not shown: small tags and cut ends)
VHH: QVQLVESGGGLVQPGGSLRLSCAASGSIFSVNTMGWYRQAPGKQRDLVAVATSGGTIHYADSVKGRFTISRDNAKNTVYLQMNSLKPEDTAVYYCNLVVPYGMIAGDHDYWGQGTKVTVSS

Target: T4, human ALPP on CHO cells (human, UniProt P05187 23-506)
T4 construct: whole, on cells; also called CHO-ALPP
Experiment: flow cytometry, CHO cells, 350 nM
Experimental: (§1) Cell surface binding of test agents to hALPP isoforms was characterized in four CHO-ALPP isoform stably transfected cell lines (CHO-ALPP, CHO-ALPPL2, CHO-ALPI and CHO-ALPL) and the resulting KDapp values determined. Adherent cells were detached from tissue culture flasks by incubating with 0.1% EDTA/PBS solution at 37° C. for ~10 minutes or until cells detached easily. Cells were re-suspended in ice-cold PBS/2% FCS in 15 ml tubes and centrifuged at 1700 rpm for 5 mins at 4° C. Supernatant was removed and the cell pellet re-suspended in PBS/2% FCS. […] Cells were incubated with 100 μl of test agents at a range of concentrations, plus controls for 1 hr on ice. The sample plate was centrifuged at 1700 rpm for 5 mins at 4° C. The supernatant was removed, and a wash performed by re-suspending the cell pellets in 0.25 mL of ice-cold PBS/2% FCS using a multichannel pipette. Samples were again centrifuged at 1700 rpm for 5 min at 4° C. Supernatant was removed and two further washes performed as described. After the final wash and centrifugation step, excess liquid was removed by blotting the plate on tissue paper. Binding of VHH (His6 tagged) agents was determined by adding 100 μl of anti-x6His tag Ab (Abcam) per cell pellet sample as appropriate and incubating on ice for 30 mins. Wash steps were performed as described previously. Fitc-anti-mouse antibody (ThermoFisher) was used to detect binding of the VHH (His6 tagged) agents by incubating with the appropriate samples for 30 min on ice in the dark. Wash steps were performed as described previously. All cell pellets were finally re-suspended in […] of ice-cold PBS/2% FCS and left on ice in the dark prior to analysis on a Merck-Millipore Guava EasyCyte HT or Thermo Fisher Attune N×T flow cytometer.

T4 sequence (P05187 23-506): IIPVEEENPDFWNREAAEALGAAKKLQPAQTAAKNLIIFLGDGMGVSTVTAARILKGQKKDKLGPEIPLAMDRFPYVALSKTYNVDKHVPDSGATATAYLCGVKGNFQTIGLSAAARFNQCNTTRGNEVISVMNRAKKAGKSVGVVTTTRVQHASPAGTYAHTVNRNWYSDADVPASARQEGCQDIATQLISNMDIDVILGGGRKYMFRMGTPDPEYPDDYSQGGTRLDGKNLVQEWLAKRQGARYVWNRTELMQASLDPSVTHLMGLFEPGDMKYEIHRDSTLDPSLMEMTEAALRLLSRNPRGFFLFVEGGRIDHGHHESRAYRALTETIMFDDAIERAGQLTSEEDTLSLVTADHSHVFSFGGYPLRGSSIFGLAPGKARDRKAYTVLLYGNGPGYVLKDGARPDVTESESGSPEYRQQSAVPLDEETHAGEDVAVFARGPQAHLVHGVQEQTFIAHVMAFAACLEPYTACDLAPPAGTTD

Binder	MFI
B1	7370 MFI
B2	6650 MFI

Target: T1, human ALPI on CHO cells
Experiment: flow cytometry, CHO cells, 350 nM
Experimental: as §1

Binder	MFI	fold lower MFI for ALPI binding versus ALPP
B1	99 MFI	75 fold
B2	629 MFI	

Target: T5, human ALPPL2 on CHO cells (human, UniProt P10696 20-503)
T5 construct: whole, on cells; also called CHO-ALPPL2
Experiment: flow cytometry, CHO cells, KDapp
Experimental: as §1

T5 sequence (P10696 20-503): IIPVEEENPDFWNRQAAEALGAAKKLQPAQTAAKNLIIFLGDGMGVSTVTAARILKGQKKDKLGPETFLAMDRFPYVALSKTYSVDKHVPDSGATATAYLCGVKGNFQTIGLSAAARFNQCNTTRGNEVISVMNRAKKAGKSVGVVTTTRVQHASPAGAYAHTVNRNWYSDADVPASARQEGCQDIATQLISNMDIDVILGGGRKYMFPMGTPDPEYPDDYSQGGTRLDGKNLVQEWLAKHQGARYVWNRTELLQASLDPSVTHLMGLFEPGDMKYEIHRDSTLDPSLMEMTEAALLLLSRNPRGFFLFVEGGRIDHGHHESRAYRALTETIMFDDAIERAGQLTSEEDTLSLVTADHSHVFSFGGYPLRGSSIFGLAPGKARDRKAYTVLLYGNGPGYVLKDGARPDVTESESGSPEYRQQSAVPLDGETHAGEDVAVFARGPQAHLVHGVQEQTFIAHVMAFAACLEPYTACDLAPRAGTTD

Binder	Kd
B3	28.3 nM
B1	3.3 nM
B4	3.8 nM
B5	1.8 nM
B6	6 nM
B7	4.9 nM
B8	5.1 nM
B2	19.5 nM

Target: T4, human ALPP on CHO cells
Experiment: flow cytometry, CHO cells, KDapp
Experimental: as §1

Binder	Kd
B3	42.4 nM
B1	5 nM
B4	3.5 nM
B5	2.3 nM
B6	3.8 nM
B7	4.6 nM
B8	3.5 nM
B2	4.2 nM
B9	3.4 nM

Target: T2, ALPI His homodimer
Experiment: ELISA, antigen coated
Description: ELISA was used to test the binding and specificity of the VHHs. […] Anti-Llama—HRP antibody was used for detection.

Binder	binding result
B3	no binding (tested: 500 ng VHH)
B4	no binding (tested: 500 ng VHH)
B5	no binding (tested: 500 ng VHH)
B6	no binding (tested: 500 ng VHH)
B7	no binding (tested: 500 ng VHH)
B8	no binding (tested: 500 ng VHH)
B9	no binding (tested: 500 ng VHH)

Target: T1, human ALPI on CHO cells
Experiment: flow cytometry, CHO cells stably expressing human ALPI; His6-tagged VHH detected with anti-His tag Ab and FITC anti-mouse Ab
Experimental: (§2) C-terminal His tagged VHH proteins were assessed for ALPP, ALPPL2, ALPI and ALPL cell-surface binding by flow cytometry. Binders encompassing different epitope bins were screened on CHO cells stably expressing ALPP, ALPPL2, ALPI or ALPL. High levels of cell-surface proteins expression were confirmed for each of the cell-lines by flow cytometry.
as §1

Binder	binding result
B3	no binding (tested: 350 nM)
B4	no binding (tested: 350 nM)
B5	no binding (tested: 350 nM)
B6	no binding (tested: 350 nM)
B7	no binding (tested: 350 nM)
B8	no binding (tested: 350 nM)
B9	no binding (tested: 350 nM)

Target: T3, human ALPL on CHO cells
Experiment: flow cytometry, CHO cells stably expressing human ALPL; His6-tagged VHH detected with anti-His tag Ab and FITC anti-mouse Ab
Experimental: as §2, §1

Binder	binding result
B3	no binding (tested: 350 nM)
B1	no binding (tested: 350 nM)
B4	no binding (tested: 350 nM)
B5	no binding (tested: 350 nM)
B6	no binding (tested: 350 nM)
B7	no binding (tested: 350 nM)
B8	no binding (tested: 350 nM)
B2	no binding (tested: 350 nM)
B9	no binding (tested: 350 nM)
